Test results from US20030138894.

System: ACE-2 inhibitor peptide (the most active ACE-2 inhibitor peptide, Example 9)

Row | Substance | conversion of angiotensin I to A1-9 by ACE-2 | hydrolysis of the substrate, hip his-leu (250 mM) by ACE (1.5 nM)
1 | recombinant human-ACE-2 | This peptide also inhibited conversion of angiotensin I to A1-9 by ACE-2. | –
2 | Angiotensin converting enzyme (ACE) | – | the inhibitor did not affect the hydrolysis of the substrate, hip his-leu (250 mM) by ACE (1.5 nM), even at 25 mM
